Test results as given in the supplement of paper PMC10567573.

B1: MCOLN1 (parent)
chain: EEEDLRRRLKYFFMSPCDKFRAKG
B2: VAMP4 (parent)
chain: FLRGPSGPRFGPRNDKIKHVQNQV

Variants of: B1
Test: protein stability index of a GFP-peptide fusion (GPS, HEK-293T) (PSI 1-6); higher = more stable
Conditions: c terminus: a fixed tail appended
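Note: lentivirally expressed fusions sorted by FACS into six bins by GFP to DsRed ratio, PSI derived from sequencing read proportions per bin multiplied by bin number.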

Protein stability index: each site, then its substitutions
K23: M 1.33 | Q 2.59 | W 1.2 | S 2.26 | I 2.01 | R 2.65 | L 1.86 | T 2.31 | N 2.56 | F 1.64 | Y 1.53 | G 1.84 | P 2.5 | H 1.84
G24: V 2.29 | S 2.57 | E 3.07 | R 1.73 | K 3.11 | W 1.33 | A 2.43 | N 2.35 | M 2.29 | L 2.55 | P 2.4 | T 2.52 | I 2.37 | F 1.8 | D 2.4 | C 1.82 | Q 4.48 | H 2.07 | Y 1.78

Variants of: B2
Test: as above
Conditions: c terminus: a fixed tail appended

Protein stability index of substitutions, site by site:
G7: V 2.44 | F 1.85 | Q 2.68 | A 2.69 | H 2.86 | K 2.32 | R 1.71 | N 2.74 | D 2.44 | P 3.24 | S 2.77 | L 2.37 | T 2.66 | Y 1.96 | C 2.94 | E 2.79 | M 2.24 | I 3.02
P8: R 2.35 | E 3.19 | V 2.54 | N 2.63 | M 2.53 | Y 2.47 | T 2.71 | K 2.07 | C 2.44 | H 2.52 | W 1.79 | S 2.58 | G 2.41 | F 2.28 | I 2.53 | Q 1.96 | A 2.62 | D 3.01 | L 1.61
F10: I 2.99 | R 3.15 | M 3.24 | G 2.89 | K 2.57 | T 3.36 | W 2.09 | P 3.02 | Q 3.14 | D 3.15 | C 2.53 | H 3.07 | L 3.21 | V 2.67 | N 2.95 | A 2.72 | S 2.86 | Y 2.27 | E 3.29
D15: P 3.23 | V 2.85 | W 1.39 | T 2.26 | A 2.6 | Y 2.1 | Q 2.5 | N 2.7 | G 2.08 | F 2.01 | M 2.05 | I 3.2 | L 2.17 | R 2.69 | E 3 | K 2.23 | H 3.02 | S 2.19 | C 2.5
R13: Y 2.31 | D 3.39 | K 2.58 | C 2.33 | A 2.32 | F 2.35 | E 3.15 | T 2.8 | L 2.02 | M 2.89 | V 2.62 | N 3.74 | W 1.87 | G 2.74 | S 3.11 | I 2.43 | Q 3.6 | P 3.06 | H 2.17
G4: A 3.07 | E 3.17 | Y 2.24 | H 2.85 | V 2.6 | F 2.47 | T 3.17 | K 2.82 | W 1.96 | R 3.22 | M 2.57 | P 3.12 | N 3.08 | I 2.05 | C 2.24 | Q 3.2 | L 2.59 | D 2.99 | S 3.06
P12: T 3.37 | A 2.54 | S 3.27 | D 3.08 | R 2.59 | I 2.87 | N 3.12 | Y 2.75 | W 1.88 | E 3.63 | F 2.7 | G 2.99 | V 2.86 | C 2.13 | K 2.89 | M 2.61 | Q 2.34 | H 2.75 | L 2.2
K16: S 2.81 | A 3 | V 2.46 | P 2.76 | R 2.75 | H 2.48 | M 2.42 | Q 3.11 | E 3.18 | D 3.13 | T 2.74 | N 3.18 | I 2.15 | F 2.25 | L 2.34 | G 3.33 | C 2.18
R3: V 2.08 | M 2.04 | K 3.04 | H 3.17 | A 2.54 | P 2.58 | C 2.77 | G 2.74 | I 2.24 | W 2.02 | Y 1.99 | E 3.56 | T 3.25 | S 3.3 | N 2.93 | L 2.42 | F 1.96 | D 3.29 | Q 2.6
N14: R 2.68 | W 2.25 | A 2.35 | I 2.2 | M 2.15 | E 3.39 | D 2.96 | P 3.04 | G 2.92 | S 2.67 | V 2.73 | L 2.55 | C 2.73 | Q 2.91 | Y 2.04 | K 2.41 | H 2.73 | T 2.7 | F 2.29
R9: S 2.69 | D 2.91 | Q 2.93 | M 2.46 | C 1.76 | L 2.06 | P 2.49 | I 2.17 | H 2.28 | T 2.75 | G 2.49 | W 2.93 | V 2.18 | E 3 | A 2 | F 1.9 | Y 2.04 | N 3.01 | K 3.87
L2: D 3.08 | R 3.43 | E 3.71 | A 2.48 | S 3.37 | W 2.9 | T 2.99 | V 1.48 | I 1.97 | F 3 | N 2.69 | Y 2.61 | M 2.99 | H 1.95 | P 3.18 | K 3.21 | C 2.11 | G 2.87 | Q 2.73
G11: M 2.52 | Y 2.16 | W 2.45 | I 2.12 | D 2.63 | S 2.65 | F 2.2 | V 1.97 | P 2.91 | Q 2.78 | R 2.34 | K 2.57 | T 2.18 | L 2.47 | C 2.37 | N 2.95 | A 2.75 | E 3.51 | H 2.81
S6: H 2.45 | I 1.97 | R 2.92 | K 2.65 | Y 2.11 | A 2.76 | T 2.77 | V 2.12 | F 2.64 | L 1.54 | P 2.79 | G 2.49 | N 2.43 | M 2.86 | Q 2.56 | D 2.95 | W 1.29 | C 2.03 | E 3.94
F1: Y 2.52 | K 3.35 | H 3.22 | M 3.27 | W 2.61 | S 3.71 | I 3.38 | C 2.85 | P 4.07 | G 3.65 | L 3.26 | V 3.43 | N 3.44 | Q 3.68 | A 3.87 | D 3.75 | R 3.35 | T 3.79 | E 3.6
P5: H 3.3 | E 3.15 | D 3.36 | L 2.59 | C 2.48 | M 2.37 | G 2.43 | A 2.79 | S 2.96 | Q 2.98 | T 2.86 | Y 2.04 | N 2.94 | R 2.72 | K 2.95 | V 2.29 | I 2.17 | W 1.55 | F 2.29
